B1: 5merTcf-SV40: Artificial promoter of 5 active Tcf sites upstream of the basal SV40 promoter; renamed CTP1 (nucleic acid)
antisense: TTGAGATGCAGATCGCAGATCTGATAAAGGTGCATTTAGAGATCAAAGGTAGGACTCTTGATCAAAGGACTGAATTCCTTGATCAAAGGTGCATTTAGAGATCAAAGGTAGGACTCTTTGATCAAAGGGACTAGTAAGCTTGCTAGCACGCGTAAGAGCTCGGTACC
B2: TcfC-E1BTATA: Luciferase reporter with TcfC arrangement of 5 Tcf sites and E1BTATA box (nucleic acid)
antisense: TACCAACAGTACCGGAATGCCAAGCTAGCTTTTTAGCTTCCTTAGCTCCTGAAAATCTCGCCAAGCTGATGAATTCGAGCTGGCGCATTATATACCCTCTGATAAAGGTGCATTTAGAGATCAAAGGTATGATCAAAGGACTTGATCAAAGGTGAGATCAAAGGTATTGATCAAAGGACTAGAGCTTACTTAGATCGCAGATCTCGAGCCCGGGCTAGCACGCGTAAGAGCTCGGTACCTATCG

How the values were obtained:
HeLa cells = assay: Transient transfection luciferase reporter assay in HeLa; format: cell-based, human
Description: (§1) HepG2, SW480 and HeLa were seeded the day before transfection at densities of 2.5×10^5, 1.5×10^5 and 6.0×10^4 cells per 6-well respectively. The next day, a mixture of CL22 peptide ([…] (SEQ ID NO:15) (described in International Patent Application WO 98/35984)) and plasmid DNA (2:1 ratio, μg:μg) was prepared in a final volume of 100 μl in HBS (10 mM Hepes pH 7.4, 150 mM NaCl; Sigma) and incubated at RT for 30–45 min before addition of 0.9 ml of “RAC” solution (0.1% human albumin (BPL, UK), 120 μM chloroquine (Sigma) in RPMI medium (Sigma). The transfection solution was then added to cells after washing them once with PBS and incubated with the cells for 4–5 hours before replacement with 2 ml of fresh complete medium. After two days, cells were washed once with PBS and then incubated for 10 min at RT in 200 μl lysis buffer (10 mM sodium phosphate pH 7.8, 8 mM MgCl2, 1 mM EDTA pH 8.0, 1% Triton X-100 and 15% glycerol). After centrifugation, an aliquot of the supernatant was assayed for luciferase activity with luciferase assay buffer (0.1 mM luciferin, 0.44 mM ATP in lysis buffer) using a luminometer (Lumat LB 9501, Berthold, Germany). Activity was normalised using the protein content of each sample (BCA, Pierce).

[1] = tested on: freshly excised colorectal cancer tissue and attached liver tissue; assay: Ex vivo transduction of freshly excised colorectal tumour samples, X-gal staining; design: species or system human
Description: Freshly excised tumour tissue was extensively washed (at least 10 minutes duration) under aseptic conditions with 20 ml of Earl's MEM containing 10% FCS, 150 μg/ml penicillin, 250 μg/ml streptomycin, 10 μg/ml tetracycline, 100 μg/ml amikacin, 150 µg/ml chloramphenicol and 100 μg/ml gentamycin and stored at 4° C. overnight in medium containing 10% FCS. After removal of fat and grossly and suspected necrotic tissue, 2–3 mm^3 samples were prepared and placed individually into wells of a 96-well plate. Samples (in quadruplicate) were incubated in 150 μl of serum-free medium containing, 1.0×10^10 virus particles or in medium alone for 4 h in a CO2 incubator. The medium was then replaced with EMEM containing 10% FCS and the samples incubated for a further 44 h to allow gene expression to proceed. β-galactosidase expression was visualised after fixation of the tumour samples in 2% paraformaldehyde/PBS for 2 h at 4° C. and washing with PBS by overnight incubation in X-gal staining solution at 37° C.

293 and PerC6 cells = assay: LacZ expression in adenovirus helper cell lines; format: cell-based, human
Description: (§2) Expression of β-galactosidase was measured for quantitative graphical presentation by means of the Galacto-Light system (Tropix Inc, Applied Biosystems, Foster City, Calif., U.S.A.)

[2] = tested on: primary human hepatocytes, dermal fibroblasts and endothelial cells; assay: Beta-galactosidase expression in infected cultured primary human cells; format: cell-based; settings: 48 h after infection
Description: Primary human dermal fibroblasts were isolated from punch biopsy samples from healthy volunteers and maintained as above. HUVEC cells were obtained from Promocell (Heidelberg, Germany) and maintained in Endothelial Growth Medium plus Supplement Mix (Promocell). Primary hepatocytes were maintained in Williams medium with added antibiotics, glutamine, insulin and hydrocortisone.
After washing cells with PBS, cells were fixed in 0.05% glutaraldehyde in PBS for 10 min at RT. Following further washing in PBS, cells were incubated cells the following solution and incubated at 37° C. X-gal solution: 400 μl 500 mM K4Fe(CN)6, 400 μl 500 mM K3Fe(CN)6, 100 μl 2 mM MgCl2, 250 μl 40 mg/ml X-Gal in DMF and 8.85 ml PBS.
as §2

SW480 cells = assay: Transient transfection luciferase reporter assay in SW480; format: cell-based, human
Description: as §1

HepG2 cells = assay: Transient transfection luciferase reporter assay in HepG2; format: cell-based, human
Description: as §1

| Molecule | luciferase reporter activity in HeLa (HeLa cells; Example 6) | luciferase activity compared to SV40 promoter alone (HeLa cells; beta-catenin not deregulated) | colorectal metastases permissive for high-level expression ([1]; 5 metastases examined) | primaries weakly or non-permissive for promoter activity ([1]; of 10 primaries) | LacZ expression compared to CMV promoter (293 and PerC6 cells; 293 and PerC6, MOI 100, 30 h post-infection) | fold more active in PerC6 than in 293 cells (293 and PerC6 cells; PerC6 vs 293) | beta-galactosidase expression [2] | activity relative to CMV enhancer/promoter (SW480 cells; SW480) | luciferase reporter activity in SW480 (SW480 cells; SW480, Example 6) | induction ratio (SW480 cells; SW480, relative to SV40 promoter set as 1) | inducibility in SW480 compared to HeLa (SW480 cells; SW480 vs HeLa) | activity relative to CMV enhancer/promoter (HepG2 cells) | induction ratio (HepG2 cells; relative to SV40 promoter set as 1) | level of reporter gene expression among Tcf-E1BTATA arrangements (SW480 cells; SW480, E1BTATA combinations) |
| --- | --- | --- | --- | --- | --- | --- | --- | --- | --- | --- | --- | --- | --- | --- |
| B1 | shows a background activity in HeLa cells | not more active than the SV40 promoter alone | all 5 colorectal metastases examined were permissive | 3 | significantly lower than that driven by the CMV promoter | approximately 3 fold | very low levels of beta-galactosidase expression | about 80% | highly active in SW480, here comparable to CMV | 44.2 | 30–60 fold | even more active than CMV | 18 |  |
| B2 |  |  |  |  |  |  |  |  |  |  |  |  |  | highest level of reporter gene expression |
